Test results taken from patent publication US20130216530A1, “Methods for optimizing biological response modifier therapy using therapeutic drug monitoring of immunosuppressants” (Exagen Diagnostics, Inc., priority 2012, published 2013).

What was measured:
Format in all cases: in vivo, human
[1] = RBC MTXPG3 levels in RA patients measured by liquid chromatography
Method: (§1) Adult RA patients receiving weekly MTX with infliximab for more than three months were enrolled in a cross sectional study. Blood was collected at trough before the infusion of infliximab. Red blood cell (RBC) MTXPGs were measured using liquid chromatography while circulating levels of infliximab were measured using a cell based assay. ATIs were measured using enzyme immunoassays. Statistical analysis consisted of regression analyses and Wilcoxon tests.
(§2) The study was cross sectional study in adult RA patients at three study sites (Brigham and Women's, Boston, Mass.; The Center for Rheumatology, Albany, N.Y.; and Altoona Center for Clinical Research, Altoona Pa.). All RA patients (according to the 2010 ACR criteria for RA)^8 enrolled had received a stable dose of MTX (for at least 4 months) in combination with infliximab for at least 3 months. Clinical parameters and demographic data were collected at the time of a single study visit. The study was approved by an independent ethic committee and informed consent was collected from all patients. Blood was drawn in EDTA containing tube and one SST tube at the time of the study visit. The blood was drawn just prior to the infliximab infusion (trough) and shipped overnight using refrigerated transportation kits. Disease activity was estimated using the clinical disease activity index (CDAI). […] RBC MTXPG3 were measured using a liquid chromatography developed and validated in our laboratory^9. Quantification limit was 5 nmol/L RBCs. Circulating levels of infliximab in serum were measured by Biomonitor (Copenhagen, DK) using a cell based assay consisting of erythroleukemic K562 cells transfected with a NFKB regulated firefly luciferase reporter-gene construct^10. Antibodies to infliximab (ATIs) were measured using a proprietary enzyme immunoassay technique (Biomonitor, Copenhagen, Denmark). The cutoff for positive ATI was 0.9 U/L. Anti-citrullinated peptide auto-antibodies levels (Anti-MCV) were measured using ELISA (Orgentec Diagnostika, Mainz, Germany). […]

[2] = Antibodies to infliximab (ATIs) in RA patients by enzyme immunoassay, cutoff 0.9 U/L
Method: as §1
The study was cross sectional study in adult RA patients at three study sites (Brigham and Women's, Boston, Mass.; The Center for Rheumatology, Albany, N.Y.; and Altoona Center for Clinical Research, Altoona Pa.). All RA patients (according to the 2010 ACR criteria for RA)^8 enrolled had received a stable dose of MTX (for at least 4 months) in combination with infliximab for at least 3 months. Clinical parameters and demographic data were collected at the time of a single study visit. The study was approved by an independent ethic committee and informed consent was collected from all patients. Blood was drawn in EDTA containing tube and one SST tube at the time of the study visit. The blood was drawn just prior to the infliximab infusion (trough) and shipped overnight using refrigerated transportation kits. Disease activity was estimated using the clinical disease activity index (CDAI). Upon receipt of blood specimen, erythrocytes and serum were isolated and stored frozen at −80° C. RBC MTXPG3 were measured using a liquid chromatography developed and validated in our laboratory^9. Quantification limit was 5 nmol/L RBCs. Circulating levels of infliximab in serum were measured by Biomonitor (Copenhagen, DK) using a cell based assay consisting of erythroleukemic K562 cells transfected with a NFKB regulated firefly luciferase reporter-gene construct^10. Antibodies to infliximab (ATIs) were measured using a proprietary enzyme immunoassay technique (Biomonitor, Copenhagen, Denmark). The cutoff for positive ATI was 0.9 U/L. Anti-citrullinated peptide auto-antibodies levels (Anti-MCV) were measured using ELISA (Orgentec Diagnostika, Mainz, Germany). Statistical analysis consists of multivariate logistic/linear regression and Wilcoxon tests as appropriate.

[3] = Circulating trough infliximab levels in serum of RA patients on MTX plus infliximab (K562 NFKB-luciferase cell based assay)
Method: as §1, §2

| median RBC MTXPG3, patients without ATI ([1]; ATI negative patients) | median RBC MTXPG3, patients having ATIs ([1]; ATI positive patients) | median RBC MTXPG3 levels ([1]; all 61 RA patients on weekly MTX, red blood cells) | Compound | patients with ATIs detected ([2]; 11 of 61 patients, ATI>0.9 U/L) | patients testing positive for ATI ([2]; 12 patients with RBC MTXPG3 above 50 nmol/L) | fold lower likelihood of having ATI (odds ratio) ([2]; RBC MTXPG3 levels above 25 nmol/L, logistic regression, CI95%: 1.1-20.8) | number of patients with ATI ([2]; of 4 patients with MTXPG3<5 nmol/L) | patients presenting with ATI ([2]; patients with RBC MTXPG3 below 5 nmol/L (3 out of 4)) | median infliximab levels, patients without ATI ([3]; ATI negative patients, trough) | median infliximab levels, patients with ATIs ([3]; ATI positive patients, trough) | median trough infliximab levels ([3]; all 61 RA patients, MTX with infliximab, serum at trough before infusion) |
| --- | --- | --- | --- | --- | --- | --- | --- | --- | --- | --- | --- |
| 30 nmol/L | 22 nmol/L | 28 nmol/L | CN(Cc1cnc2nc(N)nc(N)c2n1)c1ccc(C(=O)N[C@@H](CCC(=O)N[C@@H](CCC(=O)N[C@@H](CCC(=O)O)C(=O)O)C(=O)O)C(=O)O)cc1 [MTXPG3] | – | – | – | – | – | – | – | – |
| – | – | – | infliximab | 18% | None and none | 4.7 fold | 3 | 75% | 5.0 µg/mL | < 0.5 µg/mL | 3.3 µg/mL |
